This is an account of results in patent publication US20170010270A1 (Chugai, published 2017).

Test [1] has as its target T1, AW2, C-terminally His-tagged recombinant product of positions 1 to 196 of GPC3 (human, UniProt P51654 25-196).
T1 construct: Expressed in CHO cells; cell pellets used in reducing Western blot; Construct is stated from position 1; also called AW2 (1-196); not shown: C-terminal His tag
In words: Western blot of CHO cell pellets, reducing.

The target in test [2] is T2, AW3, C-terminally His-tagged recombinant product of positions 1 to 218 of GPC3 (human, UniProt P51654 25-218).
T2 construct: Expressed in CHO cells; cell pellets used in reducing Western blot; Construct is stated from position 1; not shown: C-terminal His tag
T2 sequence (P51654 25-218): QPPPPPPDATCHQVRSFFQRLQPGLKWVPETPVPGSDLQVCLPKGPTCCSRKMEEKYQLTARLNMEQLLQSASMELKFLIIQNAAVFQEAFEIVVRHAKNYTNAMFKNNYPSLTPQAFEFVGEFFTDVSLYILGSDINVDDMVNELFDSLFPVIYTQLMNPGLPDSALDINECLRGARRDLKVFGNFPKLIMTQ
In words: Western blot of CHO cell pellets, reducing.

Test [3] concerns the target T3, GPC3 peptide, amino acid position 321-350 (SEQ ID NO: 17) (human).
T3 construct: synthetic 30-residue peptide of GPC3
T3 peptide: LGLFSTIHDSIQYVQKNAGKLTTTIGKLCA
In words: ELISA on immobilised peptide, antibody at 2 µg/mL. As to the method: In order to identify more detailed epitopes for the antibodies, the amino acid sequence of GPC3 was divided into peptides of 30 residues containing 10-residue overlaps, and the corresponding peptides were synthesized (SEQ ID NOs: 1 to 29 in Table 2). Each peptide thus synthesized was dissolved at a concentration of 1 mg/mL in dimethyl sulfoxide and then diluted to 1 μg/mL with PBS. The diluted peptide solution was added at 70 μL/well to a 96-well plate and immobilized thereon at room temperature for 1 hour. After removal of unimmobilized peptides, 20% Blocking-one (Nacalai Tesque, Inc.) was added thereto as a blocking buffer solution at 200 μL/well, and the plate was blocked overnight. After removal of the blocking buffer solution, each well was washed with TBS-T three times, and each antibody diluted to 2 μg/mL with a blocking buffer was then added thereto at 70 μL/well. One hour later, the antibody was removed, and each well was washed three times by the addition of TBS-T at 200 μL/well. An HRP-bound anti-mouse antibody was added at 70 μL/well to each well and reacted therewith for 1 hour. […] The reaction was terminated by the addition of 1% SDS at 70 μL/well, and the absorbance at 405 nm was measured using a plate reader.

T1 sequence (P51654 25-196): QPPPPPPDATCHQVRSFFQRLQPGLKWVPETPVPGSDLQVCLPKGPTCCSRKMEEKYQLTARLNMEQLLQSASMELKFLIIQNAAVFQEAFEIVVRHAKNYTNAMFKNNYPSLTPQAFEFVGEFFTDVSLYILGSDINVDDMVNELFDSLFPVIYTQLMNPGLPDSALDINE

B1: GT30 antibody (antibody, V domains shown)
VH: QVQLQQSGAELARPGASVKLSCRASGYTFTSYGISWMMQRTGQGLEWIGEIYPRSGITYYNEKFKGKATLTADKSSSTAYMQLSSLTSEDSAVYFCARDVSDGYLFPYWGQGTLVTVSA
VL: DIQMTQSPASLSASVGETVTITCRTSENIYSYLAWYQQKQGKSPQLLVYNAKTLPEGVPSRFSGSGSGTQFSLKINSLQPEDFGSYYCQHHYGTPPTFGGGTKLEIKR
Turning to B1, the binding result in test [1] was “no binding”; in test [2], “no binding”; in test [3] it was “binds”.
